Data published in paper PMC4585835, “A novel stearic acid-modified hirudin peptidomimetic with improved pharmacokinetic properties and anticoagulant activity” (Scientific Reports, 2015).

Target: Rat thrombin (rat)
Experiment: enzyme inhibition kinetics (thrombin-catalysed hydrolysis of Chromozym TH)

In the case of Hirulog-1 (peptide), the Ki is reported as 0.0205 µM.
